Test results reported in patent US10201282B2 (The Regents of the University of California, priority 2014, dated 2019).

Target: T1, TEV protease (Tobacco etch virus, UniProt P04517)
T1 construct: With co-expression of the TEV protease; expressed in transfected cells; host or cells: HEK293 / HEK293T
Test: iTEV (EK) coiled-coil sensor in HEK293 cells without or with TEV protease
Format: cell-based
Excerpt: HEK293 cells were transfected with the iTEV (EK) sensor without (top two panels) or with (bottom two panels) TEV protease.
For example, heterodimeric coiled coils were used to replace split GFP in iTEV (De Crescenzo, G., Litowski, J. R., Hodges, R. S. & O'Connor-McCourt, M. D. Real-Time Monitoring of the Interactions of Two-Stranded de NovoDesigned Coiled-Coils: Effect of Chain Length on the Kinetic and Thermodynamic Constants of Binding †. Biochemistry 42, 1754-1763 (2003)).

T1 sequence (P04517 2038-2279): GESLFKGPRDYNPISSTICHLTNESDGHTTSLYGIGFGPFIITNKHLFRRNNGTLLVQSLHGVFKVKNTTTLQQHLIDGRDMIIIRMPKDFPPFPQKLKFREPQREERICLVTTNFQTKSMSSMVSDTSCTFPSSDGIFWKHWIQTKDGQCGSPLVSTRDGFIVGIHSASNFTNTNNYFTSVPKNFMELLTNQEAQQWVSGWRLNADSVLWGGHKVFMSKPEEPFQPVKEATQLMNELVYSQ

B1: iTEV (EK) (protein)
chain: MGGSKVSALKEKVSALKEKVSALKEKVSALKEKVSALKEGGSGSTTNIAPALDGAFHRITSSSSLMGLCDETATIIREITGYDRVMVVRFDEEGNGEILSERRRADLEAFLGNRYPASTIPQIARRLYEHNRVRLLVDVNYTPVPLQPRISPLNGRDLDMSLSCLRSMSPIHQKYMQDMGVGATLVCSLMVSGRLWGLIACHHYEPRFVPFHIRAAGEALAETCAIRIATLESENLYFQSEFCEREQIHLAGSIQPHGILLAVKEPDNVVIQASINAAEFLNTNSVVGRPLRDLGGDLPLQILPHLNGPLHLAPMTLRCTVGSPPRRVDCTIHRPSNGGLIVELEPATKLEGGGSGGSEVSALEKEVSALEKEVSALEKEVSALEKEVSALEK
modifications: (Amino acid sequence of iTEV(+) 5.1)
TEV protease co-expressed
  infrared fluorescence: becomes infrared fluorescent
Without TEV protease
  infrared fluorescence: not infrared fluorescent
